assay: soluble on expression in E. coli; label from the status in PepcDB or PDB records

Sequence | soluble on expression in E. coli
MSLASTEEETQAVMKVYSKEDYSVVNRFESHGGGWGYSAHSVEAIRFSADTDILLGGLGLFGGRGEYTAKIKLFELGPDGGDHETDGDLLAETDVLAYDCAAREKYAMMFDEPVLLQAGWWYVAWARVSGPSSDCGSHGQASITTDDGVIFQFKSSKKSNNGTDVNAGQIPQLLYRLPTSDGSTSKGKQQTSEPVHILKRSFARTVSVECFESLLSILHWSWTTLVLGVEELRGLKGFQFTATLLDLERLRFVGTCCLRLLRVYTCEIYPVSATGKAVVEETSKLAECIGKTRTLLRKILSEGVDHCMVKLDNDPQGYLSQPLRLLEAVLQECHNTFTACFHSFYPTPALQWACLCDLLNCLDQEANFKTSSSRLLAAVMSALCHTSVKLTSLFPIAYDGEVLLRSIVKQVSTENDSTLVHRFPLLVGHMEKLSQSEENISGMTSFREVLEKMLVIVVLPVRNSLRRESELFSSHLVSNTCGLLASIVSELTASALGSEVDGLNSLHSVKASANRFTKTSQGRSWNTGNGSPDAICFAVDKPGIVVVGFAVYGGGGIHEYELEVLVDDSEHAGDSTHSHRWTSLELVKGTYTTDDSPSDIAEIRLDKVVPLKENVKYAVRLRNYGSRTANGDGGMTTVQCPDGVTFTFSTCSLSSNGTNQTRGQIPQILYYRSEEGHHHHHH | soluble
MSLATLKDVAELAGVGLSTASRAISGKGPVSADAAARVKAAIAELNFRPSSIGRAMATQQLGIIGLFVPTFFGSYYGTILKQTDLELRAVHRHVVVATGCGESTPREQALEAVRFLIGRDCDGVVVISHDLHDEDLDELHRMHPKMVFLNRAFDALPDASFCPDHRRGGELAAATLIEHGHRKLAVISGPFTASDNVERLDGFFDELARHGIARDSVPLIESDFSPEGGYAATCQLLESKAPFTGLFCANDTMAVSALARFQQLGISVPGDVSVIGYDDDYSAAYAAPALTSVHIPTAELTQNAVRWLINQCYGTKWEIFREFPVTVSMRASVAREGHHHHHH | soluble
MSLATQAVSLARVRGPLALAALTLLGACSTRTAVPTPAPVAGSPSVAPESPRPPEVASGYRTGMTTAYAEQHMAAAANPLAAEAGRRILRQGGSAIDAAIAMQAVLTLVEPQASGIGGGAFLLYWDGKRVQAYDGWETAPAGADENLFLRPDGTSMGLSEARIGGRAVGVPGVLRALELAHRRYGKLPWTRLLQPAVELAEQGFPVSPRLYTQIAADPFIAGSPEMAAYFLTPQGKPKPVGTIVRNPQLAQTLREIARHGPGAFYAGPIAADIVKRVSGGANPGTLSLADLRGYRAKERDPICADYQRWKVCGMPPPSSGGIAIAQMLGTLQALAARDPKYALAAMAPRETTRAAGLEPSVDAVHVVSEAGRQADADRGLYVADADFVPVNVKGLTDPGYLTLRAGLIGDRSTGRADPGTPPGTSIALAPDRSPPRVSTSQIVAVDNAGGAVSMTTAIDSDFGAHLMVRGFVLNSGLTDFSFVPNDGGKPVANRVQAGKRPRSSMAPTLVFERDSGRLVAALGSPGGSQSIEYVSKTLIGLLDWDMDVQSAINLPNFGSRNGPTEVERGLVTQPLVQGLKARGHDVAQIEMTSGTQAIVRRRRDDGRWGWAGGADPRREGVALGDEGHHHHHH | not soluble
MSLAWAPKNYIEKVVAIYDYTKDKDDELSFKEGAIIYVIKKNDDGWFEGVCNRVTGLFPGNYVESIMHYTDEGHHHHHH | soluble
MSLAYQSEYALENEMMNQLEQLGYERVTIRDNKQLLDNFRTILNERHADKLEGNPLTDKEFQRLLTMIDGKSIFESARILRDKLPLRRDDESEIYLSFLDTKSWCKNKFQVTNQVSVEDTYKARYDVTILINGLPLVQVELKRRGIDINEAFNQVKRYRKQNYTGLFRYIQMFIISNGVETRYFSNNDSELLKSHMFYWSDEGHHHHHH | not soluble
MSLAYTKKKYTPKTKEQIKEETKEIMDKVLTDITKYYRSPEDMLELANFMAKFSNYSPKNMQLIRSQFENAYACANFKAFKDAGFHVNKGETAMKVFHPYVKEYVRDPRTKLAIPLGKLTEEQKKQVKNGELKVEKQTNYYLKATAFDISQTNAKPEDLPKIFPNRQFNFEINDENKELLKIGIQALAEKENIKIKTMGQGALVKELGNVHGAYVQVLDSSYSQIVMNPRNTETNELSVAIHELAHAKLHGNKIDPLEHTPTKEFEAELTSYIVCKHYGMDTSESAVPYIAQWTKNGQDIEEKDKSIMRVHETASSFINTIDKKISELQREGHHHHHH | soluble
MSLCRFVAYLGRPTLLENVLVRPKNSIIMQSLHARETKYRTNGDGFGLGWYSPEVSSDPALFTSVYPAWNDRNLLHLTAKIQSPCFFAHVRSASAGGVTNYNCHPFIYGDWMLMHNGEINDFIDVKRHIRHLLDDDIYHWVKGQTDSEHLFGLFLQLAKGRDITQLSVAADVLQETINKILEVIGQFGHSGPSYFNICLTNGKKIIATRYCSHEKKKPLTLHYLIGYVLSTQGLWIKEEGNPAYVVVSSERLNDLDEGWEDVPPQHMILIDENKNIQLRPLQTLGEGHHHHHH | soluble
MSLCVFLTSEVNMGLFNFVKDAGEKLWDAVTANHDKDDQAKKVQEHLNKTGIPDTDKVNVQIADGKATVTGDGLSQEAKEKILVAVGNIAGISSVDDQVKTTTPAAESQFYTVKSGDTLSAISKQVYGNANLYNKIFEANKPMLKSPEKIYPGQVLRIPEEGHHHHHH | not soluble
MSLDEGRTPILGEHPRPTMVRDNCTMLNGWWDYAIVSIPEDETAPKWRKTAAMLTRDEAVRAVKETAIPQTFDGKILVPFSPESALSGVHQTIYPDNLLWYRTVVHPVTLGGEETVRQIGDANRLILHFEAVDYVCACYVNGQLAGTHVGGYLPFDVDISAFIDPDDAFEIALCVYDPNDSGTQLRGKQKIEREGIWYTAQSGIWQSVWLEIVPEAYLRTLTLKGASDGKLFVRAEIGGDKPNAKLHIVVTDPADGTVVADETLPAGVRKVRAEIATAAEHLWSPADPYLYDVRAELRYGSAKPAETAGDAAVVQSQPMDVVSSYCAFRSVEIKPDTKGVARFHLNGKPLFVKGVLDQGYWPDGLMTAPDDEALTHDITAMKNAGFNMLRKHIKIESARWYYHCDRLGMLVWQDAVSGGGTDGEYNAWTTNRKPTLIRSTWNKFRDDTAKHFTALGADDPIYRRDWSRTCDAMVHMLGGHPSIVTWTLFNEGWGQFDACDATERIHALDPTRPIDATSGWYDQHCGDYHSVHNYFRPLEIYPDKGPLRGYVAEFEKKHRRRRRAAHYVVLPVARHGVRAFVISEFGGLAQLVPEHAAVSRAYGYGEYDSIDDWRAAVRSVLASAAALESRGLAGYVYTQVSDVEEELNGLLTYDRRVDKFAEEGHHHHHH | not soluble
MSLDFKAIQALTANDMAKVNETIHAQLNSDVSLINQLGFYIISGGGKRLRPLLAVLSAKALGYQGSHHTTAAAFIEFIHTATLLHDDVVDESDLRRGKATANAAFGNAASVLVGDFIYTRSFQMMTELGSMKILKLMSDAVNVIAEGEVQQLMNCNDPDTTEASYMQVIYSKTARLFEAATQIGAILCDASPEVELAMQNYGKYLGTAFQLIDDVMDYTSDGDEMGKNVGDDLAEGKPTLPLLYAMQHGNPEQAAMIREAIEKANGMSRLNEILAAMEQTGSLQYTIEKALHEADKAIAELAILPESEYKQALITLAHMAVNRSKEGHHHHHH | soluble
MSLDFRDYMVKQVAARSGYQLQLDGPLRWHVWPQLSILSGRMSLTAQGASQPLVRADNMRLDVALLPLLSHQLSVKQVMLKGAVIQLTPQTEAVRSEDAPVAPRDNTLPDLSDDRGWSFDISSLKVADSVLVFQHEDDEQVTIRNIRLQMEQDPQHRGSFEFSGRVNRDQRDLTISLNGTVDASDYPHDLTAAIEQINWQLQGADLPKQGIQGQGSFQAQWQESHKRLSFNQISLTANDSTLSGQAQVTLTEKPEWQLRLQFPQLNLDNLIPLNETANGENGAAQQGQSQSTLPRPVISSRIDEPAYQGLQGFTADILLQASNVRWRGMNFTDVATQMTNKSGLLEITQLQGKLNGGQVSLPGTLDATSINPRINFQPRLENVEIGTILKAFNYPISLTGKMSLAGDFSGADIDADAFRHNWQGQAHVEMTDTRMEGMNFQQMIQQAVERNGGDVKAAENFDNVTRLDRFTTDLTLKDGVVTLNDMQGQSPVLALTGEGMLNLADQTCDTQFDIRVVGGWNGESKLIDFLKETPVPLRVYGNWQQLNYSLQVDQLLRKHLQDEAKRRLNDWAERNKDSRNGKDVKKLLEKMEGHHHHHH | soluble
MSLDFREVIEQRYHQLLSRYIAELTETSLYQAQKFSRKTIEHQIPPEEIISIHRKVLKELYPSLPEDVFHSLDFLIEVMIGYGMAYQEHQTLRGIQQEIKSEIEIAANVQQTLLGTKVPQEEALDIGAISVPAKQMSGDYYHFVKDKESINIAIADVIGKGIPAALCMSMIKYAMDSLPETGIHPSQVLKNLNRVVEQNVDASMFITMFYANYNMDKHQFTYASAGHEPGFYYSQKDNTFYDLEAKGLVLGISQDYDYKQFDQHLEKGDMIVLFSDGVTECRTENGFLERPDLQKLIEEHMCSSAQEMVKNIYDSLLKLQDFQLHDDFTLIVLRRKVEGGSHHHHHH | soluble
MSLDGMPAKQQHNNTGESVELHFHYPIKGKQEPKNSHLVVLIEPKIEINKVIPESYQKEFEKSLFLQLSSFLERKGYSVSQFKDASEIPQDIKEKALLVLRMDGNVAILEDIVEESDALSEEKVIDMSSGYLNLNFVEPKSEDIIHSFGIDVSKIKAVIERVELRRTNSGGFVPKTFVHRIKETDHDQAIRKIMNQAYHKVMVHITKELSKKHMEHYEKVSSEMKKRKEGHHHHHH | soluble
MSLDIKVQKTEDLIPYEKNPRHNEGAITAVAKSIEKFGFKVPIVVDASNVIVNGHTRLKAAKYLGLKEVPTIIADDLTPEQIKAFRLADNKVGEIATWDEELLNAELDELADLDLDFDMTEFGFDLPDIEGEEVEVIEDEFEEELPAEPISKLGDIYQLGRHRLMCGDSTNSLEVEKLMGNKKADLLITDPPYNVAYEGKGKEALTIKNDSKETNEFHSFLYEAFSAAINNMKLGSSFYVWYASSEVVNFHTALEEAGFLVKQELIWNKNSMVLSRQDYHWKHEPCLYGWASGGSHSWYSDRKQTTILNFDRPTVNKEHPTMKPVALFDYQIKNSSKQGDCILDLFGGSGTTLIACEQNEREAYLMELDPRYVDVIIARWEAFTGEVAVKISGNDTAVVDGEGHHHHHH | soluble
MSLDKNDVVKKILESKKYENLDSDIVEKVVSISEKKYKLKEVENYSKKKLHQIWGSYYSAYPNWDKLLKKYNQGQLSIEDLLKIHSSTNERVATLNDFYTYVFGNIKHVSSILDFGCGFNPLALYQWNENEKIIYHAYDIDRAEIAFLSSIIGKLKTTIKYRFLNKESDVYKGTYDVVFLLKMLPVLKQQDVNILDFLQLFHTQNFVISFPIKSLSGKEKGMEENYQLWFESFTKGWIKILDSKVIGNELVYITSGFQKEGHHHHHH | soluble
MSLDKSLLKIVTNETGVATTTVEKVIALLDEGNTVPFIARYRKEVTGGLDEVKIKSIQDKWNYVVNLSERKQEVLRIIEEQGKLTKELENDIKAATQLQRVEDLYRPYKQKRRTRATIAKEKGLEPLALLVWSQEKDIDLQEEAKQYFSEEHELHTTEDVLQGINDIIAEWISDDAKYRDYIRDITFKRGLIQSEVKKQEDDEKGIYEMYYSYSEAVRSLVSHRILALNRGEKEKILKVQIEPPVEQITSYLEKQTIKNNSNEQITNSLKAAVEDSYKRLIQPSIEREIRNELTEKAEAQAIEVFSVNLKNLLLQPPLKGKVVLSVDPAFRTGCKLAVVDETGKVHHIGVIYPTAPKNDVKGAEKVVLQLIEQFSVELIAIGNGTASRETEQFISDVIRNKELDLPYIIVNEAGASVYSASPLAREEFPDLQVEERSAVSIARRVQDPLAELVKIDPKSIGVGQYQHDVSQKELSGSLSFVVETAVNQVGVNVNTASSSLLQYVSGLSKTVANNMVKQRNEEGKFTNRKQLKKIPRLGAKTYEQAIGFLRIPDGDTILDRTPIHPESYDQTKNLLQMLGYTENDIGSEKLQQDLNNIDKKATAEKLEIGLPTLEDIMEALGKPGRDPRDDFPQPLLKKNVMNMEDLKSGMELQGTVRNVVDFGVFVDIGVKQDGLVHISKMSKQFVKHPMDIASVGDVVTVWVDQVDVQKGRIALTMVGNDEGHHHHHH | soluble

Source: the DeepSol protein solubility set
